Results on 11 sequences are retold here after the DeepSol protein solubility set.

A short description of the series: soluble on expression in E. coli; label from the status in PepcDB or PDB records.
For the sequence “VSPRPGPAGRGPAPCRCADLHSLCVDSHALRRDGMRFLHTADWQLGMTRHFLAGDAQPRYSAARRDAVAGLKALAADVGAEFVVVAGDVFEHNQLAPQIVGQSLEAMRVIGLPVYLLPGNHDPLDASSVYTSTLFRAERPDNVVVLDRAGVHEVRPGVQIVAAPWRSKAPTTDPVAEVLAGLPTDAAIRLLVAHGGVDALDPDHDKPSLIRLAALDDALTRQAIHYVALGDKHSLTQVGSSGRVWYSGAPEVTNFDDVEPDPGHVLVVDIDESDPRHPVTVDARRIGRWRFVTLHHQVDTSRDIADLDLNLDLMTDKDRTVVRLALTGSLTVTDRAALDTCLDKYARLFAWLGLWERHTDLAVIPVDAEFTDLGIGGFAAAAVDELVATARGGDDESAVDAQAALALLLRLADRGAA”, the “soluble on expression in E. coli” value is listed as “not soluble”. In the case of “VTALLDVNVLIALGWPNHVHHAAAQRWFTQFSSNGWATTPITEAGYVRISSNRSVMQVSTTPAIAIAQLAAMTSLAGHTFWPDDVPLIVGSAGDRDAVSNHRRVTDCHLIALAARYGGRLVTFDAALADSASAGLVEVL”, the “soluble on expression in E. coli” value was “not soluble”.

For “VTLAAEPHPAPPQQPTVAWSEPDVDRRVEFWPTVAIRSALESGDIATWQRIAAALKRDPYGRTARQVEEVLEGIPATGIANAFWEVLDRARTHLDANERAEVARQVGLLLDRSGLQRQEFASRIGVTAQDLTAYLDGIVSPSASLMIRMRRLSDRFVRAKSVRAADS”, the “soluble on expression in E. coli” value is “soluble”.

With “VTLRVVPESLAGASAAIEAVTARLAAAHAAAAPFIAAVIPPGSDSVSVCNAVEFSVHGSQHVAMAAQGVEELGRSGVGVAESGASYAARDALAAASYLSGGL”, the “soluble on expression in E. coli” value was “not soluble”.

Take “VTPSEGNAPLPELHNTVVVAAFEGWNDAGDAAGDAVAHLAASWQALPIVEIDDEAYYDYQVNRPVIRQVDGVTRELQWPAMRISHCRPPGSDRDVVLMCGVEPNMRWRTFCDELLAVIDKLNVDTVVILGALLADTPHTRPVPVSGAAYSAASARQFGLQETRYEGPTGIAGVFQSACVGAGIPAVTFWAAVPHYVSHPPNPKATIALLRRVEDVLDVEVPLADLPAQAEAWEREITETIAEDHELAEYVQTLEQHGDAAVDMNEALGNIDGDALAAEFERYLRRRRPGFGR”: the “soluble on expression in E. coli” value is listed as “soluble”. “VTSSPFKTIKSDEIFAAAQKLMPGGVSSPVRAFKSVGGQPIVFDRVKDAYAWDVDGNRYIDYVGTWGPAICGHAHPEVIEALKVAMEKGTSFGAPCALENVLAEMVNDAVPSIEMVRFVNSGTEACMAVLRIMRAYTGRDKIIKFEGCYHGHADMFLVKAGSGVATLGLPSSPGVPKKTTANTLTTPYNDLEAVKALFAENPGEIAGVILEPIVGNSGFIVPDAGFLEGLREITLEHDALLVFDEVMTGFRIAYGGVQEKFGVTPDLTTLGKIIGGGLPVGAYGGKREIMQLVAPAGPMYQAGTLSGNPLAMTAGIKTLELLRQPGTYEYLDQITKRLSDGLLAIAQETGHAACGGQVSGMFGFFFTEGPVHNYEDAKKSDLQKFSRFHRGMLEQGIYLAPSQFEAGFTSLAHTEEDIDATLAAARTVMSAL”: the “soluble on expression in E. coli” value is “soluble”.

As to “VTVGDQNGMGPSSGYVTRITNDAREDDMENNMKEVSSMIGNLRNMAIDMGNEIGSQNRQVDRIQQKAESNESRIDEANKKATKLLKN”, the “soluble on expression in E. coli” value was “soluble”. With “YDPYQHIEKATNRRNMVLNAMVETGDITKAEGDKYKATKIVLNDQSKDPLANKYPWYVDAVINEAVNEADITQDEIMQKGY”, the “soluble on expression in E. coli” value is listed as “not soluble”.

“YGQYLSIRKTETLLRNELSKLTPDTVEELSSKLPENSRSLVITYMRQVLDARDTPAQVQRLLANFEIAADKDLAISKTLTK”: the “soluble on expression in E. coli” value is “not soluble”. With “YIKVPVLRLKPSEIHINLKLLKKTADYSSVSALQQTMLYLGRLLVQSGVNTLGVDAVAAFNAASIIDSYVLAPGSSLASSVTTFSAQNRGGGKYDRIPRG” the entry was “not soluble”; with “YKTPLLKALSAVGKAAVDVCRYFNPEVKKVVAYLGWEQEYFLVDEGLYAARPDLLLTGRTLMGHEASKNQQLEDHYFGAIPTRVAAFMKDLEIQALELGIPVKTRHNEVAPNQFELAPIFEECNLAVDHNMLLMSLMRKVARSHGFRLLLHEKPFKGVNGSGKHNNWSLGTDTGVLLMAPGKTAEDNLRFITFIVNTLMAVYHHNGLLKASIMSATNAHRLGANEAPPAIISSFLGKQLTQVLDHIEESGNDDLVSLAGKQGMKLDIPQIPELLIDNTDRNRTSPFAFTGNRFEFRAVGSEANCASAMIALNAAVAEQLARFKQDVDALIEKGEPKISAIIEIIRRYIKECKPVRFDGNGYSDEWKAEAAHRGLDCETSCPLIFDNYLKPASIAMFESTGVMTRKELEARNEVKWETYTKKIQIEARVLGDLAMNH”, “not soluble”.
